Molecular target: cardiac troponin I (cTnI) (UniProt P19429 2-210)
Assay: electrochemical aptasensor (CV, SWV); 50 ng/mL cTnI in CV feasibility test; electrode blocked with MCH; sensor LOD 8.46 pg/mL, linear range 10 pg/mL-100 ng/mL (not a Kd); SWV in PBS (0.01 M PB, 150 mM NaCl, pH 7.4); 10 uL cTnI incubated on electrode 10 min at room temperature
Conditions: protein: commercial; label: methylene blue; single strand

Sequence of cardiac troponin I (cTnI) (P19429 2-210): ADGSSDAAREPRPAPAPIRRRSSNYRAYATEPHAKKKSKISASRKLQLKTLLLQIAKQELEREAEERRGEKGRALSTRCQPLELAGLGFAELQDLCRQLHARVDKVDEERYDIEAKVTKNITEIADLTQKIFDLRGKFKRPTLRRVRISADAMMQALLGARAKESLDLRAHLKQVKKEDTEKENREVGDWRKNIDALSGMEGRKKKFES

CGTGCAGTACGCCAACCTTTCTCATGCGCTGCCCCTCTTA (ssDNA, 5' thiol (SH); 3' methylene blue (MB)) [Apt (MB-Apt-SH)]: binds.

Reference: article PMC10377036, “Biological Recognition-Based Electrochemical Aptasensor for Point-of-Care Detection of cTnI”
